Values quoted from earlier work, collected in article PMC9363672.

Target: syndecan 3 (Homo sapiens) (UniProt O75056)
Chain of UniProt O75056 (O75056 whole entry): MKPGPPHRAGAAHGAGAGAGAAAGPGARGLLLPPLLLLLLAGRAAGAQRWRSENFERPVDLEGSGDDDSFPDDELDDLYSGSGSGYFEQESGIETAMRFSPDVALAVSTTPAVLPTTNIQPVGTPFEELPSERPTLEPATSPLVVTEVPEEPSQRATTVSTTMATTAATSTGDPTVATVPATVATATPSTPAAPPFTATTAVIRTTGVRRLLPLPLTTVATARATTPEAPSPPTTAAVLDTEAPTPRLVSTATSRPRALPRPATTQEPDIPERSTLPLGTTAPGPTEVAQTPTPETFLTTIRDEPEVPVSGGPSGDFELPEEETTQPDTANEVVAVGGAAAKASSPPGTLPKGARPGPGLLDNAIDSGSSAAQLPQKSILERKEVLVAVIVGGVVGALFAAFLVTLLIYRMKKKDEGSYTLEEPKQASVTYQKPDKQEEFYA

Substance: pleiotrophin (from UniProt P21246)
- Kd: 6 nM
